Measured values from patent US7097982 (IMMUNOGEN, dated 2006).

What was measured:
[1] = target: T1, Flag tag-Bcl-xL (UniProt Q07817 1-233); experiment: co-immunoprecipitation from transfected COS cells (summarised in FIG. 6)
T1 construct: Expressed in transfected COS cells; also called Flag-Bcl-xL

[2] = target: GST alone (purified, bacterially expressed) (UniProt P08515 1-218 = GST); experiment: GST pull-down on glutathione-agarose, autoradiography
[3] = target: GST-PEM bacterially-expressed fusion protein (Bak residues 58-103 fused to GST) (UniProt P08515 1-218 = GST; Q16611 58-103); experiment: GST pull-down of in vitro translated 35S labeled protein
GST-PEM bacterially-expressed fusion protein (Bak residues 58-103 fused to GST), sequence (P08515 1-218, tags or fused parts left off): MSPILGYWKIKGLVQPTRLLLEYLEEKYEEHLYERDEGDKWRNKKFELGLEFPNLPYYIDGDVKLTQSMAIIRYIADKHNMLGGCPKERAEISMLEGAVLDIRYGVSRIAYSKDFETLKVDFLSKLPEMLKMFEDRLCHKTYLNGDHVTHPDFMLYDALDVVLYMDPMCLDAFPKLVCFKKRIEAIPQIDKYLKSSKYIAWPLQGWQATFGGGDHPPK

T1 sequence (Q07817 whole entry): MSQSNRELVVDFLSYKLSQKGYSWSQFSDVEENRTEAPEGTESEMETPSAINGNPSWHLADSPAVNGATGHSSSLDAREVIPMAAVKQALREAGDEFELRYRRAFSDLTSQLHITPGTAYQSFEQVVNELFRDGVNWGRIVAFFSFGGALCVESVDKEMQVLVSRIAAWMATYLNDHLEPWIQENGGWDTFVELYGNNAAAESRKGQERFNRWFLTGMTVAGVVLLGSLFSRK
GST alone (purified, bacterially expressed), sequence (P08515 whole entry, the tested form may be a part): as the sequence (P08515 1-218, tags or fused parts left off) above

B1: Bax ΔGD mutant (other, UniProt Q07812 1-192, looked up)
chain: MDGSGEQPRGGGPTSSEQIMKTGALLLQGFIQDRAGRMGGEAPELALDPVPQDASTKKMELQRMIAAVDTDSPREVFFRVAADMFSDGNFNWGRVVALFYFASKLVLKALCTKVPELIRTIMGWTLDFLRERLLGWIQDQGGWDGLLSYFGTPTWQTVTIFVAGVLTASLTIWKKMG
Question: Does B1 bind [1]?
Answer: no binding

B2: Bak, in vitro translated, 35S-methionine labeled (other, UniProt Q16611 1-211, looked up)
chain: MASGQGPGPPRQECGEPALPSASEEQVAQDTEEVFRSYVFYRHQQEQEAEGVAAPADPEMVTLPLQPSSTMGQVGRQLAIIGDDINRRYDSEFQTMLQHLQPTAENAYEYFTKIATSLFESGINWGRVVALLGFGYRLALHVYQHGLTGFLGQVTRFVVDFMLHHCIARWIAQRGGWVAALNLGNGPILNVLVVLGVVLLGQFVVRRFFKS
modifications: 35S-methionine label
notes: also called 35S labeled in vitro translated Bak; 35Met-labeled Bak
Question: Does B2 bind [2]?
Answer: no binding

B3: Bip1a ΔGD mutant (other, UniProt Q13323 1-160, looked up)
chain: MSEVRPLSRDILMETLLYEQLLEPPTMEVLGMTDSEEDLDPMEDFDSLECMEGSDALRAPRLAQLSEVAMHSLGLAFIYDQTEDIRDVLRSFMDGFTTLKENIMRFWRSPNPGSWVSCEQVLLALLLLLALLLPLLSGGLHLLLK
Question: Does B3 bind [1]?
Answer: no binding

B4: Bip1a (other, UniProt Q13323 1-160, looked up)
chain: MSEVRPLSRDILMETLLYEQLLEPPTMEVLGMTDSEEDLDPMEDFDSLECMEGSDALALRLACIGDEMDVSLRAPRLAQLSEVAMHSLGLAFIYDQTEDIRDVLRSFMDGFTTLKENIMRFWRSPNPGSWVSCEQVLLALLLLLALLLPLLSGGLHLLLK
notes: Used in vitro translated and 35S labeled, and expressed in transfected COS cells; also called in vitro translated, 35S labeled Bip1a
Question: Does B4 bind [3]?
Answer: no binding
